The values below come from patent US20210214414A1 (Pfizer, published 2021).

By IC50 is commonly meant the concentration that gives 50% inhibition.

The target of one experiment is T1, Human SLIT2-N (human, UniProt O94813 31-1121, limits assumed).
T1 construct: domain: SLIT2-N (N terminal fragment); Soluble analyte in SPR, d2-labelled in HTRF, overexpressed on HEK293 cells in flow cytometry; also called human SLIT2-N (N terminal fragment)
T1 sequence (looked up): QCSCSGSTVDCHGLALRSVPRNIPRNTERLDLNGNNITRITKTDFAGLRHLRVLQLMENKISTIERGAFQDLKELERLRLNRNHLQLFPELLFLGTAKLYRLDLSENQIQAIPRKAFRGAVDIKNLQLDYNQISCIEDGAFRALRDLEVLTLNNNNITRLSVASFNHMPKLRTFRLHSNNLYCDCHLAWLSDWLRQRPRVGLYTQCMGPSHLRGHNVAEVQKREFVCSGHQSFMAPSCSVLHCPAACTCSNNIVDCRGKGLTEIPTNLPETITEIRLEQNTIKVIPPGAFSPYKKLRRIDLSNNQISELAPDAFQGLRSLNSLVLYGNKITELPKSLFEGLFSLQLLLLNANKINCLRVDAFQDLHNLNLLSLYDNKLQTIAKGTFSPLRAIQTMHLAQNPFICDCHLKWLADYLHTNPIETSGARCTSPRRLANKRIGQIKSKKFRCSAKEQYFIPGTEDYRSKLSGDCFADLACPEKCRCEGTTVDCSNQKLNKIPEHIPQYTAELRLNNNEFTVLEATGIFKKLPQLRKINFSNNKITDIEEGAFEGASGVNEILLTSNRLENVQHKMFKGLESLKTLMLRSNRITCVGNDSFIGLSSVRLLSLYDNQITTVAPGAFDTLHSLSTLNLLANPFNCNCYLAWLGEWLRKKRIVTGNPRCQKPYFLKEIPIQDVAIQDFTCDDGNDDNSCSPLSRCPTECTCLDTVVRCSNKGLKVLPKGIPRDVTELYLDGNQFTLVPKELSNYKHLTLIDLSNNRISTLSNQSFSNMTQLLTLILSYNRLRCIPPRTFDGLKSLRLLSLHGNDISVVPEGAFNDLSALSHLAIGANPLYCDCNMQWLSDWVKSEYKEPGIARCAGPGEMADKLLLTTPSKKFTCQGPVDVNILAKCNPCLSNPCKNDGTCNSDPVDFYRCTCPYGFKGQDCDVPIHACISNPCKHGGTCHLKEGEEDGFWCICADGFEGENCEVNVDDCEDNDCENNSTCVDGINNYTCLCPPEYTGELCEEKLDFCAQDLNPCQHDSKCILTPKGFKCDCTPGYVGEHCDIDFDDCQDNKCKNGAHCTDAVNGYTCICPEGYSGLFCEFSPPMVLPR
The experiment is described as follows: HTRF competition: d2-labelled human SLIT2-N binding to human ROBO2 on HEK293 cells (competitor: cell surface ROBO2). On the procedure: (§1) After incubation, fluorescence at 665 nm and 620 nm was measured on an Envision multilabel plate reader. The HTRF Ratio was calculated as follows: fluorescence at 665 nm/fluorescence at 620 nm×10,000. […] The IC₅₀ for each SLITx-N was determined using an 11-point, 4-fold dilution series with a top concentration of 4000 nM.
For orientation: Time-resolved FRET reads energy transfer from a long-lived donor to a nearby acceptor.

Experiment [1] has as its target T2, Cynomolgus monkey SLIT3-N (cynomolgus monkey, UniProt A0A2K5UAP4 33-1125).
T2 construct: domain: SLIT3-N; d2-labelled in the HTRF assay
T2 sequence: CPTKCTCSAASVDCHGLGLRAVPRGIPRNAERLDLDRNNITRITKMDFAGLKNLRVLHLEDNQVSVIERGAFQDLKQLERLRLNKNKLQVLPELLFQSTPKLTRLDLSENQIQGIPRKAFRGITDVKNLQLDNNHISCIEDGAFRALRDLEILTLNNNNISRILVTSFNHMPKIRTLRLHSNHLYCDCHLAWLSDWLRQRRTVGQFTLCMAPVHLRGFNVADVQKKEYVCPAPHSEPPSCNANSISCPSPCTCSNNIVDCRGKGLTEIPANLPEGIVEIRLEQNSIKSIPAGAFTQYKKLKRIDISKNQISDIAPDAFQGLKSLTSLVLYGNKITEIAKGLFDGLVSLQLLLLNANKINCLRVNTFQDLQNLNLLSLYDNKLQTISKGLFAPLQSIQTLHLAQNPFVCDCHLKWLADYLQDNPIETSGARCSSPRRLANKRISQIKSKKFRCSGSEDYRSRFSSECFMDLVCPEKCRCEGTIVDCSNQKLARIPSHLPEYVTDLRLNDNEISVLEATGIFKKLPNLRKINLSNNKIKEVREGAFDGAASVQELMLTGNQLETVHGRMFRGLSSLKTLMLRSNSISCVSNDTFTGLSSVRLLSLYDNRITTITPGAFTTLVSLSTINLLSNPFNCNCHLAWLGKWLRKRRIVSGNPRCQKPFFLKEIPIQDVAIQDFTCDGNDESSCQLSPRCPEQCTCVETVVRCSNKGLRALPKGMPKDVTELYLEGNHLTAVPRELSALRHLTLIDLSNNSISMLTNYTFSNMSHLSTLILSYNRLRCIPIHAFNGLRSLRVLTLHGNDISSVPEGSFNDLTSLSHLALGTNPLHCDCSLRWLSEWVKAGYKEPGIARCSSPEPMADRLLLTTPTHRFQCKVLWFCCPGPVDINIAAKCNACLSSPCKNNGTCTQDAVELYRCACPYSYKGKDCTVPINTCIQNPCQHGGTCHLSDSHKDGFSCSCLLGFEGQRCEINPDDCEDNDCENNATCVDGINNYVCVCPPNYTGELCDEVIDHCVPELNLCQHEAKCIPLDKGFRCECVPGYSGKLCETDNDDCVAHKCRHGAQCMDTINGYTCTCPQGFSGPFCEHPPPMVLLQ
Put plainly: HTRF competition: d2-labelled cynomolgus monkey SLIT3-N binding to human ROBO2 on HEK293 cells; geometric mean, n=3. Here is the method:
as §1

B1: ROBO2-Fc 2.2 (Fc fusion)
chain: SRLRQEDFPPRIVEHPSDVIVSKGEPTTLNCKAEGRPTPTIEWYKDGERVETDKDDPRSHRMLLPSGSLFFLRIVHGRRSKPDEGSYVCVARNYLGEAVSRNASLEVALLRDDFRQNPTDVVVAAGEPAILECQPPRGHPEPTIYWKKDKVRIDDKEERISIRGGKLMISNTRKSDAGMYTCVGTNMVGERDSDPAELTVFERGGSGGSEPKSSDKTHTCPPCPAPEAAGAPSVFLFPPKPKDTLMISRTPEVTCVVVDVSHEDPEVKFNWYVDGVEVHNAKTKPREEQYNSTYRVVSVLTVLHQDWLNGKEYKCKVSNKALPAPIEKTISKAKGQPREPQVYTLPPSREEMTKNQVSLTCLVKGFYPSDIAVEWESNGQPENNYKTTPPVLDSDGSFFLYSKLTVDKSRWQQGNVFSCSVMHEALHNHYTQKSLSLSPG
notes: Labelled with Alexa Fluor 647 in the flow cytometry assay; also called ROBO-Fc 2.2; ROBO2-Fc 2.2-AF647
In the case of B1, the results for the IC50 (with Human SLIT2-N; in experiment [1]) were 7 nM and 3.6 nM, respectively.
